Laboratory results from article PMC10720262, “Molecular determinants of cross-reactivity and potency by VH3-33 antibodies against the Plasmodium falciparum circumsporozoite protein” (Cell Reports, 2023).

Columns and labels:
[1] = molecular target: mAb CIS43; assay: SPR
[2] = molecular target: mAb 317; assay: SPR
[3] = molecular target: mAb CIS43; assay: SPR; Carterra LSA; mAb amine-coupled to a CMD200M chip, peptide titrated in 2-fold steps up to 8 ug/mL without regeneration; 25 C; HBSTE (10 mM HEPES pH 7.4, 150 mM NaCl, 3 mM EDTA, 0.01% Tween 20); 1:1 Langmuir model; mean of triplicates; KD includes avidity for antigens with several repeats
[4] = molecular target: mAb 317; assay: as above

mAb CIS43, sequence (heavy, as listed by the source, chain 1 of 2): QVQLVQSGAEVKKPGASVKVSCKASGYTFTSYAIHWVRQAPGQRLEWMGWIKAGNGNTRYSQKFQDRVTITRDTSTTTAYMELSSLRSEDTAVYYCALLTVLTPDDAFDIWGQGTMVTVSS
mAb CIS43, sequence (light, as listed by the source, chain 2 of 2): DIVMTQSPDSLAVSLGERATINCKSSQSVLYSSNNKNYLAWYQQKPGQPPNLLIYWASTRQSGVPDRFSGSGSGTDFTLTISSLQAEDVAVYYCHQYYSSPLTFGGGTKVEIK
mAb 317, sequence (heavy, as listed by the source, chain 1 of 2): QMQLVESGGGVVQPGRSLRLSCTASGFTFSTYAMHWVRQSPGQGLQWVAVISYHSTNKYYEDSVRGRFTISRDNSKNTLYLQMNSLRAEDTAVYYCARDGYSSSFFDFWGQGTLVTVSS
mAb 317, sequence (light, as listed by the source, chain 2 of 2): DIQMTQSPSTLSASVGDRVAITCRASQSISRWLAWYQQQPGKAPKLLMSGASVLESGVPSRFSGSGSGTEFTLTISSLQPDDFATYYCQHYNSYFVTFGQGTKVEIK

Row | Substance | Kd [1] [nM] | Kd [2] [nM] | koff [2] [s⁻¹] | kon [2] [M⁻¹ s⁻¹] | Kd [3] [nM] | koff [3] [s⁻¹] | kon [3] [M⁻¹ s⁻¹] | Kd [4] [nM] | koff [4] [s⁻¹] | kon [4] [M⁻¹ s⁻¹]
1 | NANP3 peptide | 1720 | 16.6 | 0.0206 | 1.24e+06 | – | – | – | – | – | –
2 | NPDP peptide | – | – | – | – | 19.1 | 0.00216 | 113000 | 4560 | 0.0454 | 10000
3 | NPNA3 peptide | – | – | – | – | 9430 | 0.0706 | 7940 | 7.03 | 0.00138 | 197000
